Reference: patent publication US20250059282A1

Assays:
PD-1 (on Jurkat T Cell) [1] = biological target: PD-1 (on Jurkat T Cell)
PD-1 (on Jurkat T Cell) [2] = biological target: PD-1 (on Jurkat T Cell); remark: listed apart in the source
Human PD-L2-HIS (human) [3] = biological target: Human PD-L2-HIS (human) (UniProt Q9BQ51); assay: Octet binning; competitor MIH18
Human PD-L2-HIS (human) [4] = biological target: Human PD-L2-HIS (human) (UniProt Q9BQ51); assay: Octet binning; competitor BiPDL4-12
Human PD-L2-HIS (human) [5] = biological target: Human PD-L2-HIS (human) (UniProt Q9BQ51); assay: Octet binning; competitor PDL2-13 (column 11)
Human PD-L2-HIS (human) [6] = biological target: Human PD-L2-HIS (human) (UniProt Q9BQ51); assay: Octet binning; competitor BiPDL4-14
Human PD-L2-HIS (human) [7] = biological target: Human PD-L2-HIS (human) (UniProt Q9BQ51); assay: Octet binning; competitor 24F.10C12
Human PD-L2-HIS (human) [8] = biological target: Human PD-L2-HIS (human) (UniProt Q9BQ51); assay: Octet binning; competitor BiPDL4-11
Human PD-L2-HIS (human) [9] = biological target: Human PD-L2-HIS (human) (UniProt Q9BQ51); assay: Octet binning; competitor PDL2-21
Human PD-L2-HIS (human) [10] = biological target: Human PD-L2-HIS (human) (UniProt Q9BQ51); assay: Octet binning; competitor PDL2-23
Human PD-L2-HIS (human) [11] = biological target: Human PD-L2-HIS (human) (UniProt Q9BQ51); assay: Octet binning; competitor BiPDL4-13
Human PD-L2-HIS (human) [12] = biological target: Human PD-L2-HIS (human) (UniProt Q9BQ51); assay: Octet binning; competitor PDL2-13 (column 7)

Chain of Human PD-L2-HIS (human) (Q9BQ51 20-220): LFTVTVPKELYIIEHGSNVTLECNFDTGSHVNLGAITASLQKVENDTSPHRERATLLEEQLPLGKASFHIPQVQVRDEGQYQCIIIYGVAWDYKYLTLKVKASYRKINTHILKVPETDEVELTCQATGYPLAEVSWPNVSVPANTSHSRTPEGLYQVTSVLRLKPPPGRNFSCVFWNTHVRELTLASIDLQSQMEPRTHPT

Row | Substance | EC50 (read off the curve); Fold induction of luciferase, Promega: CHO-PD-L1/PD-L2 dual cells with PD-1 Jurkat reporter cells (PD-1 (on Jurkat T Cell) [1]) | EC50 (read off the curve); Luc Activity, Promega CHO-PDL1/PD-L2 dual cells with NFAT-Luc Jurkat T cells (PD-1 (on Jurkat T Cell) [2]) | % of unblocked Ab2 binding signal (Human PD-L2-HIS (human) [3]) | % of unblocked Ab2 binding signal (Human PD-L2-HIS (human) [4]) | % of unblocked Ab2 binding signal (Human PD-L2-HIS (human) [5]) | % of unblocked Ab2 binding signal (Human PD-L2-HIS (human) [6]) | % of unblocked Ab2 binding signal (Human PD-L2-HIS (human) [7]) | % of unblocked Ab2 binding signal (Human PD-L2-HIS (human) [8]) | % of unblocked Ab2 binding signal (Human PD-L2-HIS (human) [9]) | % of unblocked Ab2 binding signal (Human PD-L2-HIS (human) [10]) | % of unblocked Ab2 binding signal (Human PD-L2-HIS (human) [11]) | % of unblocked Ab2 binding signal (Human PD-L2-HIS (human) [12])
1 | Keytruda (antibody) | 0.7 nM | 2 nM | – | – | – | – | – | – | – | – | – | –
2 | MIH18 (antibody) | – | – | 5.73% | 60.6% | 82.5% | 63.4% | 71.4% | 47.9% | 74.7% | 70.3% | 57% | 73.7%
3 | 24F.10C12 (antibody) | – | – | 63.8% | 57.5% | 6.3% | 62.8% | 4.99% | 50.5% | 5.24% | 5.98% | 56.9% | 7.11%
